The source of these data is PMC10504544, “1-deoxy-D-xylulose-5-phosphate synthase from Pseudomonas aeruginosa and Klebsiella pneumoniae reveals conformational changes upon cofactor binding” (The Journal of Biological Chemistry, 2023).

Substrate in data set [1]: O=CC(O)COP(=O)(O)O
The data set can be described thus: steady-state kinetics (Km), IspC-coupled assay. It is filed as biochemical, Pseudomonas aeruginosa. The settings on record: ThDP, Mg2+.

Substrate in data set [2]: CC(=O)C(=O)O
The data set can be described thus: steady-state kinetics (Km), IspC-coupled assay. The settings on record: ThDP, Mg2+. Type of data set: biochemical, Pseudomonas aeruginosa.

B1: 1-deoxy-D-xylulose-5-phosphate synthase (paDXPS) (Pseudomonas aeruginosa PAO1) (protein)
chain: MPKTLHEIPRERPATPLLDRASSPAELRRLGEADLETLADELRQYLLYTVGQTGGHFGAGLGVVELTIALHYVFDTPDDRLVWDVGHQAYPHKILTERRELMGTLRQKNGLAAFPRRAESEYDTFGVGHSSTSISAALGMAIAARLQGKERKSVAVIGDGALTAGMAFEALNHASEVDADMLVILNDNDMSISHNVGGLSNYLAKILSSRTYSSMREGSKKVLSRLPGAWEIARRTEEYAKGMLVPGTLFEELGWNYIGPIDGHDLPTLVATLRNMRDMKGPQFLHVVTKKGKGFAPAELDPIGYHAITKLEAPGSAPKKTGGPKYSSVFGQWLCDMAAQDARLLGITPAMKEGSDLVAFSERYPERYFDVAIAEQHAVTLAAGMACEGMKPVVAIYSTFLQRAYDQLIHDVAVQHLDVLFAIDRAGLVGEDGPTHAGSFDISYLRCIPGMLVMTPSDEDELRKLLTTGYLFDGPAAVRYPRGSGPNHPIDPDLQPVEIGKGVVRRRGGRVALLVFGVQLAEAMKVAESLDATVVDMRFVKPLDEALVRELAGSHELLVTIEENAVMGGAGSAVGEFLASEGLEVPLLQLGLPDYYVEHAKPSEMLAECGLDAAGIEKAVRQRLDRQ
B1: the Michaelis constant (Km) in data set [1] was determined as 357 ± 77 µM; in data set [2], 184 ± 25 µM.

Usually Km stands for the concentration of substrate that gives half-maximal velocity.
